Assay results taken from the supplement of paper PMC10065799, “High-throughput profiling of sequence recognition by tyrosine kinases and SH2 domains using bacterial peptide display” (eLife, 2023).

system: AncSZ; experiment: phosphorylation enrichment, bacterial display (enrichment ratio); higher = better substrate or ligand; peptides without Tyr show the background
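Also: 11-residue human phosphosite peptides and single-mutation variants displayed on the E. coli surface, counted by deep sequencing, each peptide's frequency after selection divided by its frequency in the unselected input library; frequency after pTyr selection over input frequency; kinase dosed for 20-30% of maximal phosphorylation in three min.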

Sequence	phosphorylation enrichment
IGKAGYTDKVV [ENO1_Y236]	0.531
PFRSIYFSSPK [MPG_Y75_YF]	0.851
LNPLFYSLRNK [OR5R1_Y290_I289F]	0.552
LARDMDDKEYY [MET_Y1230_Y1230D]	1.87
QKMADYSNKLY [PDPR_Y104]	0.61
ATVLNYLPKCI [A2M_Y817]	0.747
RPLVVYPWTQR [HBB_Y36_L32P]	0.728
LIGRRYDDPEV [HSPA9_Y128]	2.69
IGERTYGQVYK [CDK13_Y716_G714R]	0.507
ENRKYYMDLKE [PURA_Y156]	0.733
YPPDGYSRHCE [CTNND1_Y213_Y217C]	0.883
AVSHRYDLGGL [QPRT_Y162_A158V]	0.515
WPLKWYVPECI [ZAP70_Y506_A507V]	1.06
PKEQRYSFLQN [GH1_Y68_K67R]	1.27
KLLPEYPGVLS [DHFR2_Y163]	0.685
PDKRIYQFTAA [SKAP2_Y197]	0.73
RASQEYHIVKK [PDZD2_Y557_S552R]	0.772

Sequence	phosphorylation enrichment
SLQAHYDTPRS [DOK7_Y405_R402Q]	0.513
RLDRSYSYSYS [PEAR1_Y890]	0.655
HFPFQCHRQLF [F12_Y53_Y53C_YF]	1.76
TKGMIYGGGGG [PSME1_Y249]	0.494
KLVQLYDVCTK [BTK_Y461_G462D]	0.994
KDKLPYPFDDP [GPX2_Y125_YF]	1.04
TGNPAYRSFSN [IL4R_Y497_A492T]	0.595
HQPGEYIFHAE [FLT3_Y416]	1.77
ENFDDYMKDVG [FABP4_Y20_E23D]	1.17
PRARTYCFKQE [KLHDC9_Y175_S171R_YF]	0.519
WAFNLYDINKD [KCNIP3_Y174]	1.43
ALLVFYAATIA [SLC20A2_Y187_P184L]	0.934
GMKIVYVFVKK [DNAI2_Y5_E2K_YF]	1.2
GPSTPYTKSKR [SMARCC2_Y324]	0.408
IVAEYYDNLPH [DEGS1_Y284_A280V]	1.9
GLAELYEYQKK [CKAP5_Y1854_K1857Q]	1.08

target: Fyn (UniProt P06241); experiment: as above
Sequence (P06241 whole entry, looked up): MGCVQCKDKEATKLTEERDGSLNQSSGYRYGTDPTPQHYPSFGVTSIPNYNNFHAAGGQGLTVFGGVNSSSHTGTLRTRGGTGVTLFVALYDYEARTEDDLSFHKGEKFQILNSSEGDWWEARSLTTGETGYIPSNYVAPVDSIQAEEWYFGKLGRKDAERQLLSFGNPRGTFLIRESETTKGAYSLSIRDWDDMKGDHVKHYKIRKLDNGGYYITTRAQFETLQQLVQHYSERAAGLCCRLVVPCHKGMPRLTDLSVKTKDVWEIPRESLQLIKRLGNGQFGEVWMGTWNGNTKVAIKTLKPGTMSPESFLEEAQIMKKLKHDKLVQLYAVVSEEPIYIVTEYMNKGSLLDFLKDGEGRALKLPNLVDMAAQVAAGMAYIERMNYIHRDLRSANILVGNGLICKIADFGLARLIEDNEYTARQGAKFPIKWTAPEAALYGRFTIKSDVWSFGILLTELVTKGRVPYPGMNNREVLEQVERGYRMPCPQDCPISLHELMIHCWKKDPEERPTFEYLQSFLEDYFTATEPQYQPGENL

Sequence	phosphorylation enrichment
IGKAGYTDKVV [ENO1_Y236]	0.359
PFRSIYFSSPK [MPG_Y75_YF]	0.658
LNPLFYSLRNK [OR5R1_Y290_I289F]	0.511
LARDMDDKEYY [MET_Y1230_Y1230D]	0.691
QKMADYSNKLY [PDPR_Y104]	0.515
ATVLNYLPKCI [A2M_Y817]	0.437
RPLVVYPWTQR [HBB_Y36_L32P]	0.468
LIGRRYDDPEV [HSPA9_Y128]	0.836
IGERTYGQVYK [CDK13_Y716_G714R]	9.16
ENRKYYMDLKE [PURA_Y156]	0.418
YPPDGYSRHCE [CTNND1_Y213_Y217C]	0.585
AVSHRYDLGGL [QPRT_Y162_A158V]	0.337
WPLKWYVPECI [ZAP70_Y506_A507V]	0.428
PKEQRYSFLQN [GH1_Y68_K67R]	0.605
KLLPEYPGVLS [DHFR2_Y163]	0.46
PDKRIYQFTAA [SKAP2_Y197]	0.566
RASQEYHIVKK [PDZD2_Y557_S552R]	0.289

Sequence	phosphorylation enrichment
SLQAHYDTPRS [DOK7_Y405_R402Q]	0.366
RLDRSYSYSYS [PEAR1_Y890]	0.334
HFPFQCHRQLF [F12_Y53_Y53C_YF]	0.535
TKGMIYGGGGG [PSME1_Y249]	0.49
KLVQLYDVCTK [BTK_Y461_G462D]	1.37
KDKLPYPFDDP [GPX2_Y125_YF]	0.556
TGNPAYRSFSN [IL4R_Y497_A492T]	0.369
HQPGEYIFHAE [FLT3_Y416]	0.915
ENFDDYMKDVG [FABP4_Y20_E23D]	0.564
PRARTYCFKQE [KLHDC9_Y175_S171R_YF]	0.421
WAFNLYDINKD [KCNIP3_Y174]	1.92
ALLVFYAATIA [SLC20A2_Y187_P184L]	0.44
GMKIVYVFVKK [DNAI2_Y5_E2K_YF]	0.463
GPSTPYTKSKR [SMARCC2_Y324]	0.405
IVAEYYDNLPH [DEGS1_Y284_A280V]	0.682
GLAELYEYQKK [CKAP5_Y1854_K1857Q]	0.532

target: Jak2 (UniProt O60674); experiment: as above
Sequence (O60674 whole entry, looked up): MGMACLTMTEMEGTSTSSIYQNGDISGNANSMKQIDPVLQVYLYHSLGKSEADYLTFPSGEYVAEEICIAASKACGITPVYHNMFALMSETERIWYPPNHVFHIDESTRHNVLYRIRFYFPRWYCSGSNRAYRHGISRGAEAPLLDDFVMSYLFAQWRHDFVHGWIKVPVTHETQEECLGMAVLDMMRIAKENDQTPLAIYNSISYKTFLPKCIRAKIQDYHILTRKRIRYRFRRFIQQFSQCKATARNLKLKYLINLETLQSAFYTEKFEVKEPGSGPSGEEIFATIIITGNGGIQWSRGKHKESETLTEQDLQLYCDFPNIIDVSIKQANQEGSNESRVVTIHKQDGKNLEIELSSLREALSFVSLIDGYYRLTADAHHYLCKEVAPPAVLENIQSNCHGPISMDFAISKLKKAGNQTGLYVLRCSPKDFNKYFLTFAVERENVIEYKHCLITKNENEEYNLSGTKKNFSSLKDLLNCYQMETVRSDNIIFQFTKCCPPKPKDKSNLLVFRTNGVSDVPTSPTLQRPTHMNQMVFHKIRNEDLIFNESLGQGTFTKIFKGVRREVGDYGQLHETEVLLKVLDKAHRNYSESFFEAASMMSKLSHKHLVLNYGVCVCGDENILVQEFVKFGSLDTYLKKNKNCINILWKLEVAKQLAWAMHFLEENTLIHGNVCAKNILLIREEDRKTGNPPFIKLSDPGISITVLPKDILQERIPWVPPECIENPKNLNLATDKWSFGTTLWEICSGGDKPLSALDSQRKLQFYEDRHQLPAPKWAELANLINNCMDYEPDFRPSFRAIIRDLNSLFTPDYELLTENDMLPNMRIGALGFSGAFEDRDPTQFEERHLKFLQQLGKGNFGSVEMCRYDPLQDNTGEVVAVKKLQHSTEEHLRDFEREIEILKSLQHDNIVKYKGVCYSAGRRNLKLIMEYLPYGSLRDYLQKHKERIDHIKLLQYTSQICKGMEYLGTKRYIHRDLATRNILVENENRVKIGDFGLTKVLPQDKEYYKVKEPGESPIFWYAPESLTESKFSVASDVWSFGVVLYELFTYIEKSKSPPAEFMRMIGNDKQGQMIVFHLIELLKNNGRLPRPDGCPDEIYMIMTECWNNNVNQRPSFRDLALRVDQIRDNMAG

Sequence	phosphorylation enrichment
IGKAGYTDKVV [ENO1_Y236]	0.632
PFRSIYFSSPK [MPG_Y75_YF]	0.553
LNPLFYSLRNK [OR5R1_Y290_I289F]	0.468
LARDMDDKEYY [MET_Y1230_Y1230D]	1.37
QKMADYSNKLY [PDPR_Y104]	0.579
ATVLNYLPKCI [A2M_Y817]	0.858
RPLVVYPWTQR [HBB_Y36_L32P]	0.445
LIGRRYDDPEV [HSPA9_Y128]	1.35
IGERTYGQVYK [CDK13_Y716_G714R]	0.516
ENRKYYMDLKE [PURA_Y156]	0.734
YPPDGYSRHCE [CTNND1_Y213_Y217C]	0.816
AVSHRYDLGGL [QPRT_Y162_A158V]	0.467
WPLKWYVPECI [ZAP70_Y506_A507V]	1.02
PKEQRYSFLQN [GH1_Y68_K67R]	1.62
KLLPEYPGVLS [DHFR2_Y163]	0.598
PDKRIYQFTAA [SKAP2_Y197]	0.651
RASQEYHIVKK [PDZD2_Y557_S552R]	1.06

Sequence	phosphorylation enrichment
SLQAHYDTPRS [DOK7_Y405_R402Q]	0.53
RLDRSYSYSYS [PEAR1_Y890]	0.374
HFPFQCHRQLF [F12_Y53_Y53C_YF]	1.1
TKGMIYGGGGG [PSME1_Y249]	0.501
KLVQLYDVCTK [BTK_Y461_G462D]	0.79
KDKLPYPFDDP [GPX2_Y125_YF]	0.821
TGNPAYRSFSN [IL4R_Y497_A492T]	0.422
HQPGEYIFHAE [FLT3_Y416]	1.29
ENFDDYMKDVG [FABP4_Y20_E23D]	1.24
PRARTYCFKQE [KLHDC9_Y175_S171R_YF]	0.435
WAFNLYDINKD [KCNIP3_Y174]	1.17
ALLVFYAATIA [SLC20A2_Y187_P184L]	1.04
GMKIVYVFVKK [DNAI2_Y5_E2K_YF]	1
GPSTPYTKSKR [SMARCC2_Y324]	0.497
IVAEYYDNLPH [DEGS1_Y284_A280V]	1.53
GLAELYEYQKK [CKAP5_Y1854_K1857Q]	0.917

target: EPHB1 (UniProt P54762); experiment: as above
Sequence (P54762 whole entry, looked up): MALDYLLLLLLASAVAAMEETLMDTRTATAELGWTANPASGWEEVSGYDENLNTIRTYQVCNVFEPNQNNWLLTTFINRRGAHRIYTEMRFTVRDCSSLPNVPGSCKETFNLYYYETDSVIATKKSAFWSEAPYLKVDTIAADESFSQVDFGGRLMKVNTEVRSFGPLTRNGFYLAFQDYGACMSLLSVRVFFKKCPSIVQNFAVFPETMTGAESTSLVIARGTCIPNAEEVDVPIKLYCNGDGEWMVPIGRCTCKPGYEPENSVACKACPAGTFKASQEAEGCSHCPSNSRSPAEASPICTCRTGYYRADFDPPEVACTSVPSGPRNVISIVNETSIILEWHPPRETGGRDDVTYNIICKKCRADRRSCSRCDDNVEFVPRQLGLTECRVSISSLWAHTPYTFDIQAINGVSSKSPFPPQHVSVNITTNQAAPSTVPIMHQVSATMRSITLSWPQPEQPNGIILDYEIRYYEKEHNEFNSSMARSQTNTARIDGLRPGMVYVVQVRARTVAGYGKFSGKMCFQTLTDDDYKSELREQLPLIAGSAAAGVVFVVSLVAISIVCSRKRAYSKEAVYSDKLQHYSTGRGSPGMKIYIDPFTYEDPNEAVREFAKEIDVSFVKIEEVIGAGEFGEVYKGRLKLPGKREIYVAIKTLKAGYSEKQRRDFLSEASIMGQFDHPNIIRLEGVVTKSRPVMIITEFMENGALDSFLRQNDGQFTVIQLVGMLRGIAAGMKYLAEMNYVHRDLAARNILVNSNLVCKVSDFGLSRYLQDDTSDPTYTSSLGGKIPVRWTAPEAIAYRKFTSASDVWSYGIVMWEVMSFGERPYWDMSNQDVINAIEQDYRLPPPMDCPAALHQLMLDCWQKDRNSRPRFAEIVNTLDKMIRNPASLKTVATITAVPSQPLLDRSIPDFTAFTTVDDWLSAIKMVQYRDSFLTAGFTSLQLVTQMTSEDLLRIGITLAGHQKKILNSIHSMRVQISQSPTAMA

Sequence	phosphorylation enrichment
IGKAGYTDKVV [ENO1_Y236]	0.398
PFRSIYFSSPK [MPG_Y75_YF]	0.382
LNPLFYSLRNK [OR5R1_Y290_I289F]	0.396
LARDMDDKEYY [MET_Y1230_Y1230D]	0.828
QKMADYSNKLY [PDPR_Y104]	0.492
ATVLNYLPKCI [A2M_Y817]	0.662
RPLVVYPWTQR [HBB_Y36_L32P]	1.11
LIGRRYDDPEV [HSPA9_Y128]	1.11
IGERTYGQVYK [CDK13_Y716_G714R]	0.409
ENRKYYMDLKE [PURA_Y156]	0.563
YPPDGYSRHCE [CTNND1_Y213_Y217C]	0.461
AVSHRYDLGGL [QPRT_Y162_A158V]	0.403
WPLKWYVPECI [ZAP70_Y506_A507V]	0.688
PKEQRYSFLQN [GH1_Y68_K67R]	0.75
KLLPEYPGVLS [DHFR2_Y163]	0.349
PDKRIYQFTAA [SKAP2_Y197]	0.779
RASQEYHIVKK [PDZD2_Y557_S552R]	0.754

Sequence	phosphorylation enrichment
SLQAHYDTPRS [DOK7_Y405_R402Q]	0.435
RLDRSYSYSYS [PEAR1_Y890]	0.443
HFPFQCHRQLF [F12_Y53_Y53C_YF]	0.875
TKGMIYGGGGG [PSME1_Y249]	0.339
KLVQLYDVCTK [BTK_Y461_G462D]	12.1
KDKLPYPFDDP [GPX2_Y125_YF]	0.457
TGNPAYRSFSN [IL4R_Y497_A492T]	0.328
HQPGEYIFHAE [FLT3_Y416]	0.887
ENFDDYMKDVG [FABP4_Y20_E23D]	0.635
PRARTYCFKQE [KLHDC9_Y175_S171R_YF]	0.345
WAFNLYDINKD [KCNIP3_Y174]	1.27
ALLVFYAATIA [SLC20A2_Y187_P184L]	0.648
GMKIVYVFVKK [DNAI2_Y5_E2K_YF]	0.59
GPSTPYTKSKR [SMARCC2_Y324]	0.322
IVAEYYDNLPH [DEGS1_Y284_A280V]	1.09
GLAELYEYQKK [CKAP5_Y1854_K1857Q]	0.909
